Measurements taken from IntAct's records for PubMed 11231056.

B1: Platelet-activating factor acetylhydrolase IB subunit beta (Mus musculus), P63005 (parent)
chain: MVLSQRQRDELNRAIADYLRSNGYEEAYSVFKKEAELDMNEELDKKYAGLLEKKWTSVIRLQKKVMELESKLNEAKEEFTSGGPLGQKRDPKEWIPRPPEKYALSGHRSPVTRVIFHPVFSVMVSASEDATIKVWDYETGDFERTLKGHTDSVQDISFDHSGKLLASCSADMTIKLWDFQGFECIRTMHGHDHNVSSVAIMPNGDHIVSASRDKTIKMWEVQTGYCVKTFTGHREWVRMVRPNQDGTLIASCSNDQTVRVWVVATKECKAELREHEHVVECISWAPESSYSSISEATGSETKKSGKPGPFLLSGSRDKTIKMWDVSTGMCLMTLVGHDNWVRGVLFHSGGKFILSCADDKTLRVWDYKNKRCMKTLNAHEHFVTSLDFHKTAPYVVTGSVDQTVKVWECR
partner: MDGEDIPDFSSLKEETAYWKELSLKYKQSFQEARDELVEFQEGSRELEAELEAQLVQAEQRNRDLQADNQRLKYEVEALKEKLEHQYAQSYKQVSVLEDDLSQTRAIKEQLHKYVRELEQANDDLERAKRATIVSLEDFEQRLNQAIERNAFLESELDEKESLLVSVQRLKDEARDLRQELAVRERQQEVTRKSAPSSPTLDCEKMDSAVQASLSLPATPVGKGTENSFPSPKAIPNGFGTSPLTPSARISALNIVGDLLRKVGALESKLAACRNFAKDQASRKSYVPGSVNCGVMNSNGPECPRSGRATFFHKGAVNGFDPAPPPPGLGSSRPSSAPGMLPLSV

Variants of: B1
Details: with ndel1_mouse Ndel1, Q9ERR1

Effect of a mutation on the interaction, disrupting interaction:
MVLSQRQRDELNRAIADYLRSNGYEEAYSVFKKEAELDMNEELDKKYAGLLEKKWTSVIRLQKKVMELESKLNEAKEEFTSGGPLGQKRDPKEWIPRPPEKYALSGHRSPVTRVIFHPVFSVMVSASEDATIKVWDYETGDFERTLKGHTDSVQDISFDHSGKLLASCPADMTIKLWDFQGFECIRTMHGHDHNVSSVAIMPNGDHIVSASRDKTIKMWEVQTGYCVKTFTGHREWVRMVRPNQDGTLIASCSNDQTVRVWVVATKECKAELREHEHVVECISWAPESSYSSISEATGSETKKSGKPGPFLLSGSRDKTIKMWDVSTGMCLMTLVGHDNWVRGVLFHSGGKFILSCADDKTLRVWDYKNKRCMKTLNAHEHFVTSLDFHKTAPYVVTGSVDQTVKVWECR [S169P]
MVLSQRQRDELNRAIADYLRSNGYEEAYSVFKKEAELDMNEELDKKYAGLLEKKWTSVIRLQKKVMELESKLNEAKEEFTSGGPLGQKRDPKEWIPRPPEKYALSGHRSPVTRVIFHPVFSVMVSASEDATIKVWDYETGDFERTLKGHTDWVQDISFDHSGKLLASCSADMTIKLWDFQGFECIRTMHGHDHNVSSVAIMPNGDHIVSASRDKTIKMWEVQTGYCVKTFTGHREWVRMVRPNQDGTLIASCSNDQTVRVWVVATKECKAELREHEHVVECISWAPESSYSSISEATGSETKKSGKPGPFLLSGSRDKTIKMWDVSTGMCLMTLVGHDNWVRGVLFHSGGKFILSCADDKTLRVWDYKNKRCMKTLNAHEHFVTSLDFHKTAPYVVTGSVDQTVKVWECR [S152W]
MVLSQRQRDELNRAIADYLRSNGYEEAYSVFKKEAELDMNEELDKKYAGLLEKKWTSVIRLQKKVMELESKLNEAKEEFTSGGPLGQKRDPKEWIPRPPEKYALSGHRSPVTRVIFHPVFSVMVSASEDATIKVWDYETGDFERTLKGRTDSVQDISFDHSGKLLASCSADMTIKLWDFQGFECIRTMHGHDHNVSSVAIMPNGDHIVSASRDKTIKMWEVQTGYCVKTFTGHREWVRMVRPNQDGTLIASCSNDQTVRVWVVATKECKAELREHEHVVECISWAPESSYSSISEATGSETKKSGKPGPFLLSGSRDKTIKMWDVSTGMCLMTLVGHDNWVRGVLFHSGGKFILSCADDKTLRVWDYKNKRCMKTLNAHEHFVTSLDFHKTAPYVVTGSVDQTVKVWECR [H149R]
